Measured values from patent US10906951B2, “Modified natural killer cells and natural killer cell lines having increased cytotoxicity” (ONK THERAPEUTICS LIMITED, priority 2015, dated 2021).
Where a chain is given by its changes, count along the chain named. Names may count otherwise.

B1: TRAIL variant (D269H/E195R): TRAIL variant of WO 2009/077857, encoded by the wildtype TRAIL gene containing the D269H/E195R mutation (protein)
chain: MAMMEVQGGPSLGQTCVLIVIFTVLLQSLCVAVTYVYFTNELKQMQDKYSKSGIACFLKEDDSYWDPNDEESMNSPCWQVKWQLRQLVRKMILRTSEETISTVQEKQQNISPLVRERGPQRVAAHITGTRGRSNTLSSPNSKNEKALGRKINSWESSRSGHSFLSNLHLRNGELVIHEKGFYYIYSQTYFRFQERIKENTKNDKQMVQYIYKYTSYPDPILLMKSARNSCWSKDAEYGLYSIYQGGIFELKENDRIFVSVTNEHLIDMHHEASFFGAFLVG
B2: K251E: TRAIL DR4 variant, WO 2009/066174 (protein, UniProt P50591 1-281, looked up, variant K251E)
Tumor necrosis factor ligand …: B1 chain with R195E, K251E, H269D
B3: Y213W/S215D: TRAIL variant, MacFarlane 2005 (protein, UniProt P50591 1-281, looked up, variant Y213W S215D)
Tumor necrosis factor ligand …: B1 chain with R195E, Y213W, S215D, H269D
B4: T261L: TRAIL DcR variant, Leary 2016 (protein, UniProt P50591 1-281, looked up, variant T261L)
Tumor necrosis factor ligand …: B1 chain with R195E, T261L, H269D
B5: T261L/H270D: TRAIL DcR variant, Leary 2016 (protein, UniProt P50591 1-281, looked up, variant T261L H270D)
Tumor necrosis factor ligand …: B1 chain with R195E, T261L, H269D, H270D
B6: K251Q: TRAIL DR4 variant, WO 2009/066174 (protein, UniProt P50591 1-281, looked up, variant K251Q)
Tumor necrosis factor ligand …: B1 chain with R195E, K251Q, H269D
B7: D218A: TRAIL DcR variant, WO 01/00832 (protein, UniProt P50591 1-281, looked up, variant D218A)
Tumor necrosis factor ligand …: B1 chain with R195E, D218A, H269D
B8: E195R: TRAIL variant, Van der Sloot 2006 (protein, UniProt P50591 1-281, looked up, variant E195R)
Tumor necrosis factor ligand …: B1 chain with H269D
B9: T261L/G160E/H270D/T200H: TRAIL DcR variant, Leary 2016 (protein, UniProt P50591 1-281, looked up, variant T261L G160E H270D T200H)
Tumor necrosis factor ligand …: B1 chain with G160E, R195E, T200H, T261L, H269D, H270D
B10: H270D: TRAIL DcR variant, Leary 2016 (protein, UniProt P50591 1-281, looked up, variant H270D)
Tumor necrosis factor ligand …: B1 chain with R195E, H269D, H270D
B11: D269H: TRAIL variant, Van der Sloot 2006 (protein, UniProt P50591 1-281, looked up, variant D269H)
Tumor necrosis factor ligand …: B1 chain with R195E
B12: Y189A/Q193S/N199V/K201R/Y213W/S215D: TRAIL variant, MacFarlane 2005 (protein, UniProt P50591 1-281, looked up, variant Y189A Q193S N199V K201R Y213W S215D)
Tumor necrosis factor ligand …: B1 chain with Y189A, Q193S, R195E, N199V, K201R, Y213W, S215D, H269D
B13: Y240A: TRAIL DR5 variant, WO 01/00832 (protein, UniProt P50591 1-281, looked up, variant Y240A)
Tumor necrosis factor ligand …: B1 chain with R195E, Y240A, H269D
B14: T214R/D269H: TRAIL variant, Van der Sloot 2006 (protein, UniProt P50591 1-281, looked up, variant T214R D269H)
Tumor necrosis factor ligand …: B1 chain with R195E, T214R
B15: R149N: TRAIL DR4 variant, WO 2009/066174 (protein, UniProt P50591 1-281, looked up, variant R149N)
Tumor necrosis factor ligand …: B1 chain with R149N, R195E, H269D
B16: R149I: TRAIL DR4 variant, WO 2009/066174 (protein, UniProt P50591 1-281, looked up, variant R149I)
Tumor necrosis factor ligand …: B1 chain with R149I, R195E, H269D
B17: T261L/G160E/H270D: TRAIL DcR variant, Leary 2016 (protein, UniProt P50591 1-281, looked up, variant T261L G160E H270D)
Tumor necrosis factor ligand …: B1 chain with G160E, R195E, T261L, H269D, H270D
B18: T214R: TRAIL variant, Van der Sloot 2006 (protein, UniProt P50591 1-281, looked up, variant T214R)
Tumor necrosis factor ligand …: B1 chain with R195E, T214R, H269D
B19: Y189Q/R191K/Q193R/H264R/I266L/D267Q: TRAIL DR4 variant, MacFarlane 2005 (protein, UniProt P50591 1-281, looked up, variant Y189Q R191K Q193R H264R I266L D267Q)
Tumor necrosis factor ligand …: B1 chain with Y189Q, R191K, Q193R, R195E, H264R, I266L, D267Q, H269D
B20: R149M: TRAIL DR4 variant, WO 2009/066174 (protein, UniProt P50591 1-281, looked up, variant R149M)
Tumor necrosis factor ligand …: B1 chain with R149M, R195E, H269D
B21: N199V: TRAIL variant, MacFarlane 2005 (protein, UniProt P50591 1-281, looked up, variant N199V)
Tumor necrosis factor ligand …: B1 chain with R195E, N199V, H269D
B22: D269A: TRAIL DR5 variant, WO 01/00832 (protein, UniProt P50591 1-281, looked up, variant D269A)
Tumor necrosis factor ligand …: B1 chain with R195E, H269A
B23: Q193H: TRAIL DR4 variant, WO 2009/066174 (protein, UniProt P50591 1-281, looked up, variant Q193H)
Tumor necrosis factor ligand …: B1 chain with Q193H, R195E, H269D
B24: S159R: TRAIL DR4 variant, WO 2009/066174 (protein, UniProt P50591 1-281, looked up, variant S159R)
Tumor necrosis factor ligand …: B1 chain with S159R, R195E, H269D
B25: T261L/G160E: TRAIL DcR variant, Leary 2016 (protein, UniProt P50591 1-281, looked up, variant T261L G160E)
Tumor necrosis factor ligand …: B1 chain with G160E, R195E, T261L, H269D
B26: T200H: TRAIL DcR variant, Leary 2016 (protein, UniProt P50591 1-281, looked up, variant T200H)
Tumor necrosis factor ligand …: B1 chain with R195E, T200H, H269D
B27: K251D: TRAIL DR4 variant, WO 2009/066174 (protein, UniProt P50591 1-281, looked up, variant K251D)
Tumor necrosis factor ligand …: B1 chain with R195E, K251D, H269D
B28: T214R/E195R: TRAIL variant, Van der Sloot 2006 (protein, UniProt P50591 1-281, looked up, variant T214R E195R)
Tumor necrosis factor ligand …: B1 chain with T214R, H269D
B29: G131K: TRAIL DR4 variant, WO 2009/066174 (protein, UniProt P50591 1-281, looked up, variant G131K)
Tumor necrosis factor ligand …: B1 chain with G131K, R195E, H269D
B30: R149K: TRAIL DR4 variant, WO 2009/066174 (protein, UniProt P50591 1-281, looked up, variant R149K)
Tumor necrosis factor ligand …: B1 chain with R149K, R195E, H269D

Key:
[1] = system: LIR2 gene; experiment: gRNA cleavage activity, T7E1 mismatch detection assay in K562 cells, LIR2; type: cell-based, human; conditions: CRISPR/Cas9, T7E1 mismatch assay, FIG. 4
Description: Two gRNA candidates were selected for each target gene and their cleavage efficacies in K562 cells determined. The sequences of the gRNA candidates are shown in Table 1 and the Protospacer Adjacent Motif (PAM) relates to the last 3 bases of the sequence. The flanking regions of the gRNA sequences on the LIR2 gene (SEQ ID NO: 1) and the CTLA4 gene (SEQ ID NO: 7) are shown in FIGS. 1 and 2, respectively.
K562 cells were transfected with the prepared gRNA constructs (FIG. 3) and subsequently harvested for PCR amplification. The presence of GFP expression was used to report successful incorporation of the gRNA construct into the K562 cells. This confirmed expression of the Cas9 gene and therefore the ability to knock out expression of the LIR2 and CTLA4 genes.
The cleavage activity of the gRNA constructs was determined using an in vitro mismatch detection assay. T7E1 endonuclease I recognises and cleaves non-perfectly matched DNA, allowing the parental LIR2 and CTLA4 genes to be compared to the mutated genes following CRISPR/Cas9 transfection and non-homologous end joining (NHEJ).

[2] = system: TRAIL decoy receptors (DcR1 and DcR2); conditions: in words; known from WO 2009/077857, Leary 2016, WO 01/00832; cited from earlier work
[3] = target: DR5 (Homo sapiens, UniProt O14763); conditions: in words; known from WO 2009/077857, Van der Sloot 2006, MacFarlane 2005, WO 01/00832; cited from earlier work
[4] = target: DR4 (Homo sapiens, UniProt O00220); conditions: in words; known from WO 2009/066174, MacFarlane 2005; cited from earlier work

Molecule | affinity for DR5 [3] | affinity for DR4 [4] | also measured
g9 gRNA: LIR2 g9 gRNA sequence GAGTCACAGGTGGCATTTGGCGG (expressed or natural sequence; listed as Homo sapiens) |  |  | gRNA cleavage efficiency (LIR2 knockout) [1]: 11%
g18 gRNA: LIR2 g18 gRNA sequence CGAATCGCAGGTGGTCGCACAGG (expressed or natural sequence; listed as Homo sapiens) |  |  | gRNA cleavage efficiency (LIR2 knockout) [1]: 10%
B1 | significantly increases the affinity |  | affinity for TRAIL decoy receptors [2]: reducing the affinity
B2 |  | increased affinity for DR4 | 
B3 | increased affinity for DR5 |  | 
B4 |  |  | affinity for TRAIL decoy receptors [2]: decreased affinity for TRAIL decoy receptors
B5 |  |  | affinity for TRAIL decoy receptors [2]: decreased affinity for TRAIL decoy receptors
B6 |  | increased affinity for DR4 | 
B7 |  |  | affinity for TRAIL decoy receptors [2]: DcR variants
B8 | increased affinity for DR5 |  | 
B9 |  |  | affinity for TRAIL decoy receptors [2]: decreased affinity for TRAIL decoy receptors
B10 |  |  | affinity for TRAIL decoy receptors [2]: decreased affinity for TRAIL decoy receptors
B11 | increased affinity for DR5 |  | 
B12 | increased affinity for DR5 |  | 
B13 | DR5 variants |  | 
B14 | increased affinity for DR5 |  | 

Molecule | affinity for DR5 [3] | affinity for DR4 [4] | also measured
B15 |  | increased affinity for DR4 | 
B16 |  | increased affinity for DR4 | 
B17 |  |  | affinity for TRAIL decoy receptors [2]: decreased affinity for TRAIL decoy receptors
B18 | increased affinity for DR5 |  | 
B19 |  | DR4 variants | 
B20 |  | increased affinity for DR4 | 
B21 | increased affinity for DR5 |  | 
B22 | DR5 variants |  | 
B23 |  | increased affinity for DR4 | 
B24 |  | increased affinity for DR4 | 
B25 |  |  | affinity for TRAIL decoy receptors [2]: decreased affinity for TRAIL decoy receptors
B26 |  |  | affinity for TRAIL decoy receptors [2]: decreased affinity for TRAIL decoy receptors
B27 |  | increased affinity for DR4 | 
B28 | increased affinity for DR5 |  | 
B29 |  | increased affinity for DR4 | 
B30 |  | increased affinity for DR4 | 
